From patent publication US20250019427A1 (BYOMASS, published 2025) come the findings set out here.

One test concerns the target T1, Cyno GDF15 Fc (cyno, UniProt G7PWZ3 193-308).
T1 construct: also called cyno GDF15-Fc fusion
T1 sequence: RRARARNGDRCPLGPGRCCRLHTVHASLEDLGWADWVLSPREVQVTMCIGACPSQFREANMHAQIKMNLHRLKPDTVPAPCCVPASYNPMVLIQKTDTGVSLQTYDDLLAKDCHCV
Nature of the test: Octet BLI, Fab monovalent. For orientation: BLI is a label-free optical method that tracks binding on a fibre tip over time.

In the next test the target is T2, GDF15 (Homo sapiens (Human), UniProt Q99988 30-308).
T2 sequence: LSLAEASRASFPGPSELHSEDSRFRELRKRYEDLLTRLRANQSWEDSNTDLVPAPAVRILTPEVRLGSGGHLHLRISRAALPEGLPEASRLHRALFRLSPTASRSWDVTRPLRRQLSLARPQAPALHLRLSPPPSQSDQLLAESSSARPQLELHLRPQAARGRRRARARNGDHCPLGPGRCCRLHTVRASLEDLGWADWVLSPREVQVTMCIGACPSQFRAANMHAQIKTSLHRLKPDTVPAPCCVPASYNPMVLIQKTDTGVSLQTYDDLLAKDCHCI
Description: cell-based or functional assay.

Substitutions are numbered along the chain they refer to. Several values for one entry are separate records, joined by “and”; a condition that tells them apart may be missing. Identical values can stand only once.

B1: Clone B Fab (Fab, V domains shown)
VH: QVQLQESGPGLVKPSQTLSLTCTVSGGSISSGGIYWTWIRQHPGKGLEWIGAIAYSGSTYYNPSLKSRVTISVDTSKNQFSLKLSSVTAADTAVYYCARGIEYQHFDYWGQGTLVTVSS
VL: not shown
notes: Fab format
B1 registered a Kd with Cyno GDF15 Fc of 0.349 nM. Moreover, the “GDF15 GFRAL RET pERK Fab IC50 pM” value with GDF15 turned out to be 30.9 pM.

B2: Clone A Fab (Fab, V domains shown)
VH: B1 VH with S30T, I34S, T37S, A54V, I101V
VL: not shown
notes: Fab format; also called Fab of Clone A
Take B2: in the test with Cyno GDF15 Fc, the Kd is 0.536 nM. For the same molecule, the “GDF15 GFRAL RET pERK Fab IC50 pM” value with GDF15 worked out at 26.5 pM.

B3: Clone J Fab (Fab, V domains shown)
VH: QVQLVQSGAEVKKPGASVKVSCKASGYTFTSYGINWVRQAPGQGLEWMGWIDAYSGSTNYAQKLQGRVTMTTDTSTSTAYMELRSLRSDDTAVYYCARGPGQYADVDVWGQGTMVTVSS
VL: DIQMTQSPSSVSASVGDRVTITCRASQGISSWLAWYQQKPGKAPKLLIYAASSLQSGVPSRFSGSGSGTDFTLTISSLQPEDFATYYCQQANSFPITFGGGTKVEIK
notes: Fab format
For the molecule B3, in the test with Cyno GDF15 Fc, the affinity, expressed as Kd, was 0.769 nM. For the same molecule, the “GDF15 GFRAL RET pERK Fab IC50 pM” value with GDF15 was found to be 75.1 pM.

B4: Clone P Fab (Fab, V domains shown)
VH: QVQLVQSGAEVKKPGATVKVSCKASGYTFDSYGIHWVRQAPGQGLEWMGWITAYSGDTVYAQKLQGRVTMTTDTSTSTAYMELRSLRSDDTAVYYCARESGQTSSALGPWGQGTLVTVSS
VL: B3 VL with S31R, A91G, N92A, I96L
notes: Fab format
B4 returned a Kd in the test with Cyno GDF15 Fc of 1.72 nM. Besides, in the test with GDF15, the “GDF15 GFRAL RET pERK Fab IC50 pM” value is 701 pM and 1000 pM.

B5: Clone G Fab (Fab, V domains shown)
VH: QVQLVQSGAEVKKPGSSVKVSCKASGGTFQGYAISWARQAPGQGLEWMGGIIPPYATANYAQKFQGRVTITADESTSTAYMELSSLRSEDTAVYYCARGVGELHLDVWGQGTMVTVSS
VL: not shown
notes: Fab format
With B5, the Kd in the test with Cyno GDF15 Fc is 0.474 nM. The “GDF15 GFRAL RET pERK Fab IC50 pM” value with GDF15 was 33.2 pM.

The term Kd denotes the concentration at which binding is half-saturated. High values mean weaker binding, low ones tighter binding.
